The record followed here is a protein production outcome set (Wang et al. 2014).

The data set is described as follows: label from the status in PepcDB records.

Take “MEVISSFYLFLEILGTVAFAISGTVVGINHKLDIFGILVMSVITAVGGGIFRDLLLGATPPTALKSPFFIVISIIASIVAMLVALIIKSRREALSIFKAARFYNNLLLVSDAIGLGIFTVLGIDAGIAHGYSQNIFFIVFLGVLTGVGGGMIRDVIANQVPMIFRENIYALPCIIGGILYVYLQSVISHNLALFISVIFIVLIRIISEQRKLNLPRIEY”: the protein production entry was “failed”.
The value for “MEVKMNEIMEALEQSELIIIHRHLRPDPDAYGSQLGLKYYLQKKFPNKQIYAVGANEDSLKFIGLMDEIDDDMYKKATVVVCDTANAPRIDDQRYDTGTKLLKIDHHPATDQYGDINYVNTKASSTSEIIYEFILHFNDEHIIDEQVARVLYLGIVGDTGRFLFNNTTPRTMQIAGKLLTYPFDHNQELNKMSEKDPKLLPFQGYILQNFDLNDKGFCKVKITKDILEKFQIQPNEASLFVNTIADIRGLKIWMFGVDEGDQIRCRLRSKGHIIINDVANTFGGGGHPNASGVSVNSWEQFEQLAEALNDKL” was “failed”; that for “MEVSEGIEIIRGDPRRALIKLSGPLIVAMLLTSIYNLVDAVWVAGLGGEALAAIGFVTPIYMILVGLSNGLGAGAASSVSRCLGAGDEEGMNNSASHTIIITLAVSIILTVIIEILLRDILLSLGAAGALKPAMEYGSVVFAGTLFTLFPGAAYGILRSEGDARRPMYAMGLSAVLNMVLDPILIYTAGWGIAGAAWATVISQLLVSLLIIYWFLAGRTFTSIGWSHFRADRGVVWSILSVTIPASAEFLVMSMVTALLNWILTSVAGTSAVAVYSAGWRIVMLAIVPVISVATALVSVSGVAYGSRNFENLEVAHGYSIRLGLLIAGATAALTFVLAPWIAWIFSYSQASSHLAPRITGFLRVICLFYIFLPPGIMSGSIFQGAGRGMTSLMLSVIRQVLLVAVFAYLLAVTLGLGEVGVWWGVVAGDIGGSLVAYLWARLFIGRLRRYAA” was “failed”.
As for “MEVYSMNFALGVILAFSAAFTWALTSVLSKVSMRRVSPLTLNFLRLVIASGFYLPLIIYLNLIPSKGIMWWVIVVFSGIIGFMIGDWLFLEGMKLLGVSRANMLTTLHPIITMVLAHYLLGRPLNAYLFLGAGLIILAVLLLLSEKSESGGINARGVLLVVVAELLWTIAILITDWLVSNEPPVLIAALRISSGILGGLPFLPKMWREIRKLRLGDMGLVFVISLLGTIVGQYLFIKSISLVSSTVATPVTESTPIMASLLAVVFLREKITSKLVASMMLSFIGILIIGVLG”, the protein production result is “failed”.
The result for “MEWEVKEDGYSEEVSSLFLDHLPSKILEAKNRAEQLLTLQEKPILDIAEYNHAKVLAAFQEERVSTYHLQGTTGYGLGDSGRETLDRVMARILGTEAALVRGQFVSGTHAIATALFGVLRPGDHFISVTGDPYDTLEEVIGIRGTGQGSLKDFGVSYDSVPLSEEGTIQHSLVSQGIKPNTKMLILQRSRGYAWRNSLPMEQIAAFVAYVREHFPHLIIFVDNCYGELVEKCEPGDVGADLMAGSLIKNLGGSLAPTGGYIAGRQELVEKAACRLTAPGIGGEVGATLSWQLQFFQGLFFSPLTVSEAIRGAIFSAAFWQALGFEVNPLPDALRTDLIQAVKLNSREAMIAFCQGFQKGSPVDSHVLPIPSGMPGYEDEVIMAGGTFIQGATSEFSADGPMRDPFIAYQQGGVSMNYIKFGNLLAAQKLWEQGLLK” reads “failed”; that for “MEYDEKLARFRQAHLNPFNKQSGPRQHEQGPGEEVPDVTPEEALPELPPGEPEFRCPERVMDLGLSEDHFSRPVGLFLASDVQQLRQAIEECKQVILELPEQSEKQKDAVVRLIHLRLKLQELKDPNEDEPNIRVLLEHRFYKEKSKSVKQTCDKCNTIIWGLIQTWYTCTGGPRPRRGVRNERDQSSCLRWAHIQM”, “failed”; that for “MEYGHHARPDSKRPLDEGSPAAAGLTSKKANEALTRNRELTTVLVKNLPKSYNQNKVYKYFKHCGPIIHVDVADSLKKNFRFARIEFARYDGALAAITKTHKVVGQNEIIVSHLTECTLWMTNFPPSYTQRNIRDLLQDINVVALSIRLPSLRFNTSRRFAYIDVTSKEDARYCVEKLNGLKIEGYTLVTKVSNPLEKSKRTDSATLEGREIMIRNLSTELLDENLLRESFEGFGSIEK”, “not failed”.
The result for “MEYIKPHKGFSTLIILGITLGIDLIFSLLSTFINTYIVLRILEIFIVFFNIYQLYYILKSLTLKYCYDNENFYVLWCFGIRRVTIPFKEIEAYNVSHGEIKGVKLWGYGRNFFALGTFSVNDIGIVNMFVTATKNVIYIKCNSSIYGISPEKCDEVKNFLEKRKLVLKNWTYEKRNKVSLSKDRHFDILIFLISIVILMVTIIPFILYLRGVMPHKMPLSFDSNFKPMIYGTSREFAFKHMMYGAYNMIIFFCIYYSAYFYARYSKKLAYRLMYISFLVAFIFLIFQFKIYVTYIH” reads “failed”.
